Article PMC2528193
Several values for one entry are separate records, joined by “and”; a condition that tells them apart may be missing. Equal entries are not always repeated.

Columns and labels:
[1] = test system: PfHUp (processed PfHU, bacterial histone-like protein) (Plasmodium falciparum); assay: EMSA
[2] = target: predicted processed PfHU (P. falciparum bacterial histone-like protein), recombinant (P. falciparum); assay: SDS-resistant dimer on SDS-PAGE with anti-His Western blot
[3] = target: predicted processed PfHU (P. falciparum bacterial histone-like protein), recombinant (P. falciparum); assay: cross-linking

Row | Substance | Kd [1] [nM] | stoichiometry N [2] | stoichiometry N [3]
1 | 30 bp probe | 62.7 | – | –
2 | predicted processed PfHU (P. falciparum bacterial histone-like protein), recombinant (domain or fragment) | – | 2 | 2 and 4
